Molecular target: Met receptor on MDCK cells (UniProt Q75ZY9 25-1382, limits assumed)
Assay: cell-based or functional assay

- inhibition of HGF-induced activation of Met: ~5 fold lower concentration
B1: recombinant Aras-4, soluble (ligand)
chain: YAEGQGKRRNTIHEFKKSAKTTLIKIDPALRIKTEKANTADQCANRCTRSKGLPFTCKAFVFDKARKRCLWFPFNSMSSGVKKEFGHEFDLYENKAYIRDCIIGRGRNYRGTVSITKSGIKCQPWSAMIPHEHSFLPSSYRGEDLRENYCRNPRGEEGGPWCYTSDPEVRYEVCDIPQCSEVE

— patent US20220184181A1 (Stanford University, published 2022)
